Results reported in patent US20100279930A1 (published 2010).
Where two headings read alike, the source gives them in different places. No end group written: not given here.

Assays:
[1] = molecular target: T1, human Y4 receptor (human, UniProt P50391 1-375); test: 125I-PP displacement
[2] = molecular target: T1, human Y4 receptor; test: 125I-PP displacement; remark: listed apart in the source

T1 sequence (P50391 whole entry): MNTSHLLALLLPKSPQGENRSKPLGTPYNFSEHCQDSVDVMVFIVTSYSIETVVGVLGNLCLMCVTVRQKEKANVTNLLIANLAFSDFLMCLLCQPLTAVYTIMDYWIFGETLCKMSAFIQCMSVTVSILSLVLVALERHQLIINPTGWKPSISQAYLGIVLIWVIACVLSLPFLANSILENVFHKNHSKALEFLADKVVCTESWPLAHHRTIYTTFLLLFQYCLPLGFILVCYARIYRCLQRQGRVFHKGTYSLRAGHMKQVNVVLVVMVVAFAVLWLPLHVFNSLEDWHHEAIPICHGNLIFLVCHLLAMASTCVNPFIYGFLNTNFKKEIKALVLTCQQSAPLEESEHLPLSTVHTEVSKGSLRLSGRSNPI

Binder | IC50 [1] | IC50 [2]
AAPLEPVYPGDNATPEELVKYYSALRRYINLLTRPRY [7112] | 0.095 nM | –
AAPLEPFYPGDDATPQQIAHYAAELRRYINTLTRPRY [7148] | 0.16 nM | –
AAPLEPVYPGDNATPEQMAQYAADLRRYINKLTRPRY (ends and bridges not checked) [compound of SEQ ID NO:171 (code 7218)] | 0.15 nM | –
PAPLEPVYPGDNATPEELVKYYSALRHYINMLTRPRY [7104] | 0.225 nM | –
APLEPVYPGDNATPEEINHYYSALRRYINMLTRPRY [7122] | 0.118 nM | –
PAPLEPVYPGDNATPEEINHYYSALRRYINMLTRPRY [7123] | 0.09 nM | –
APLEPVYPGDNATPEEIVHYFIELRRYINMLTRPRY [7125] | 0.1 nM | –
APLEPVYPGDNATPEELVKYYSALRRYINLLTRPRY [7111] | 0.077 nM | –
APLEPVYPGDNATPEQMAQYAADLRRYINCLTRPRY [7115] | 0.229 nM | –
APLEPVYPGDDATPQQIAHYYSELRRYINMLTRPRY [7135] | 0.18 nM | –
APLEPVYPGDNATPEEIVKYFIELRRYINMLTRPRY [7124] | 0.31 nM | –
APLEPKYPGDNATPEQMAQYAAALRRYINKLTRPRY [7231] | 0.089 nM | –
PAPLEPVYPGDNATPEQMAQYAADLRRYINKLTRPRY [7220] | 0.1 nM | –
APLEPVYPGDNATPEELVKYAAELRRYINMLTRPRY [7163] | 0.146 nM | –
APLEPVYPGDDATPEQMAHYAAELRRYINMLTRPRY [7165] | 0.183 nM | –
CAPLEPVYPGDNATPEQMAQYAADLRRYINCLTRPRY [7117] | 0.351 nM | –
GAPLEPVYPGDNATPEQMAHYAAELRRYINMLTRPRY [7162] | 0.219 nM | –
PAPLEPVYPGDNATPEQMAHYAAELRRYINMLTRPRY [7161] | 0.188 nM | –
AAPLEPVYPGDDATPQQMAQYAAELRRYINMLTRPRY [6866] | 0.17 nM | –
APLEPVYPGDNATPEELVKYYASLRRYINMLTRPRY [7109] | 0.083 nM | –

Binder | IC50 [1] | IC50 [2]
APLEPEYPGDDATPQQMAHYAAELRRYINMLTRPRY [7149] | 0.119 nM | –
APLEPKYPGDNATPEQMAQYAAALRRYINMLTRPRY [7230] | 0.21 nM | –
APLEPVYPGDDATPQQMAHYYSELRRYINMLTRPRY [7136] | 0.149 nM | –
DAPLEPVYPGDNATPEQMAQYAADLRRYINKLTRPRY [7219] | 0.22 nM | –
PAPLEPVYPGDNATPEQMAQYAAALRRYINKLTRPRY [7217] | 0.066 nM | –
AAPLEPFYPGDDATPQQMAHYAAELRRYINTLTRPRY [7147] | 0.148 nM | –
DAPLEPVYPGDNATPEQMAQYAAALRRYINKLTRPRY [7216] | 0.109 nM | –
PAPLEPVYPGDDATPQQMAHYYSELRRYINMLTRPRY [7137] | 0.072 nM | –
PAPLEPVYPGDNATPEELVKYYASLRHYINMLTRPRY [7108] | 0.25 nM | –
APLEPVYPGDNATPEQMAHYAAELRRYINMLTRPRY [7160] | 0.15 nM | –
HAPLEPVYPGDDATPQQMAHYYSELRRYINMLTRPRY [7139] | 0.137 nM | –
PAPLEPVYPGDDATPQEIVHYFIELRRYINTLTRPRY [7133] | 0.173 nM | –
AAPLEPVYPGDNATPEQMAQYAAALRRYINKLTRPRY [compound of SEQ ID NO:168 (Ala 0, Ala 23 and Lys 30, code 7215)] | 0.057 nM | –
PAPLEPTYPGDNATPEQKAKYAAELRRYINKLTRPRY [4060203] | – | 0.067 nM
GAPLEPRYPGDNATPEEMAKYAAELRRYINKLTRPRY [4060144] | – | 0.101 nM
PAPLEPFYPGDNATPEQMAHYAADLRRYINTLTRPRY [7143] | 0.188 nM | –
GAPLEPVYPGDNATPEELVKYYSALRRYINMLTRPRY [7102] | 0.114 nM | –
GAPLEPTYPGDNATPEQLAKYYSELRRYINHLTRPRY [4060272] | – | 0.095 nM
PAPLEPTYPGDNATPEQLAKYYSELRRYINHLTRPRY [4060273] | – | 0.118 nM
AAPLEPVYPGDNATPEQMAHYAAELRRYINTLTRPRY [7158] | 0.146 nM | –

Binder | IC50 [1] | IC50 [2]
AAPLEPFYPGDDATPQQMAHYAAELRRYINMLTRPRY [7144] | 0.216 nM | –
PAPLKPEYPGDNATPEQLAKYAAELRRYINKLTRPRY [4059859] | – | 0.108 nM
GAPLEPVYPGDNATPEQMAKYYSELRRYINKLTRPRY [4060147] | – | 0.077 nM
PAPLEPHYPGDNATPEELARYAAELRRYINKLTRPRY [4060139] | – | 0.121 nM
PAPLEPRYPGDNATPEEMAKYAAELRRYINKLTRPRY [4060143] | – | 0.095 nM
AAPLEPVYPGDDATPQQMAHYYSELRRYINMLTRPRY [7138] | 0.13 nM | –
PAPLEPHYPGDNATPEQLARYYSELRRYINKLTRPRY [4059966] | – | 0.053 nM
APLEPVYPGDNATPEELVKYYSALRHYINMLTRPRY [7103] | 0.2 nM | –
GAPLEPHYPGDNATPEEMAKYAAELRRYINKVTRPRY [4059947] | – | 0.066 nM
GAPLEPEYPGDNATPEQKARYAAALRRYINHLTRPRY [4060130] | – | 0.072 nM
AAPLEPVYPGDNATPEELARYAAELRRYINKLTRPRY [4060135] | – | 0.197 nM
GAPLEPHYPGDNATPEEMAKYASELRRYINKLTRPRY [4059935] | – | 0.081 nM
HAPLKPKAPGDNATPEQLAKYAAELRRYINKLTRPRY [4059861] | – | 0.1 nM
GAPLEPHYPGDNATPEEMAKYATELRRYINKLTRPRY [4059932] | – | 0.085 nM
GAPLEPEYPGDNATPEQKAKYAAALRRYINHLTRPRY [4060274] | – | 0.128 nM
GAPLEPEAPGDNATPEQMAKYAAALRRYINKLTRPRY [4059977] | – | 0.095 nM
PAPLEPHYPGDNATPEEMAKYATELRRYINKLTRPRY [4059934] | – | 0.108 nM
GAPLEPTYPGDDATPEQLAKYAAELRRYINKLTRPRY [4060210] | – | 0.106 nM
AAPLEPHYPGDNATPEQMARYYSELRRYINKLTRPRY [4059955] | – | 0.044 nM
